Results on 94 variants are retold here after the supplement of paper PMC10567573.

First the molecules themselves.
B1: IMPA1 (parent)
chain: FIGEESVAAGEKSILTDNPTWIID
B2: SMOC2 (parent)
chain: PALETQPQGDEEDIASRYPTLWTE
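Note: lentivirally expressed fusions sorted by FACS into six bins by GFP to DsRed ratio, PSI derived from sequencing read proportions per bin multiplied by bin number.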

Variants of B1 are the subject of the first data set. Kind of data set: protein stability index of a GFP-peptide fusion (GPS, HEK-293T) (PSI 1-6); higher = more stable. The settings on record: c terminus: a fixed tail appended.
FIGEESVAAGEKSILTDNPTWIIS [D24S]: the protein stability index was determined as 1.76.
On the same count and under the same terms, under FIGEESVAAGEKSILTDNPTWIIL [D24L] stands 2.05; under FIGEESVAAGEKSILTDNPTWIIR [D24R], 1.59.
As to FIGEESVAAGEKSILTDNPTWIII [D24I], the protein stability index turned out to be 1.16.
The same measure, in the same setting: in the case of FIGEESVAAGEKSILTDNPTWIIW [D24W] it was 2.06; in that of FIGEESVAAGEKSILTDNPTWIIM [D24M], 2.05.
Consider FIGEESVAAGEKSILTDNPTWIIG [D24G], for which the protein stability index stood at 2.44.
On the same count and under the same terms, in the case of FIGEESVAAGEKSILTDNPTWIIF [D24F] it was 2.2; in that of FIGEESVAAGEKSILTDNPTWIIV [D24V], 1.86; in that of FIGEESVAAGEKSILTDNPTWIIQ [D24Q], 2.15.
Same read-out and setting: under FIGEESVAAGEKSILTDNPTWIIP [D24P] stands 2.04; under FIGEESVAAGEKSILTDNPTWIIE [D24E], 2.03; under FIGEESVAAGEKSILTDNPTWIIH [D24H], 2.01.
The same measure, in the same setting: in the case of FIGEESVAAGEKSILTDNPTWIIT [D24T] it was 1.7; in that of FIGEESVAAGEKSILTDNPTWIIN [D24N], 1.66; in that of FIGEESVAAGEKSILTDNPTWIIC [D24C], 1.72.
Regarding FIGEESVAAGEKSILTDNPTWIIY [D24Y], the protein stability index is 2.33.
Same read-out and setting: under FIGEESVAAGEKSILTDNPTWIIA [D24A] stands 1.71.
The same measure, in the same setting: under FIGEESVAAGEKSILTDNPTWIIK [D24K] stands 2.07; under FIGEESVAAGEKSILTDNPTWMID [I22M], 2.57.
FIGEESVAAGEKSILTDNPTWYID [I22Y]: the protein stability index turned out to be 2.82.
In the case of FIGEESVAAGEKSILTDNPTWSID [I22S], the protein stability index came to 2.35.
With FIGEESVAAGEKSILTDNPTWPID [I22P], the protein stability index came out at 3.76.
For the variant FIGEESVAAGEKSILTDNPTWQID [I22Q], the protein stability index worked out at 2.75.
On the same count and under the same terms, under FIGEESVAAGEKSILTDNPTWHID [I22H] stands 3.37; under FIGEESVAAGEKSILTDNPTWTID [I22T], 1.68; under FIGEESVAAGEKSILTDNPTWKID [I22K], 2.48.
Regarding FIGEESVAAGEKSILTDNPTWNID [I22N], the protein stability index was found to be 3.12.
Same read-out and setting: in the case of FIGEESVAAGEKSILTDNPTWEID [I22E] it was 4.71; in that of FIGEESVAAGEKSILTDNPTWWID [I22W], 2.33.
Still for that read-out and setting: under FIGEESVAAGEKSILTDNPTWLID [I22L] stands 2.67.
On to FIGEESVAAGEKSILTDNPTWFID [I22F], for which the protein stability index is 2.01.
The same measure, in the same setting: under FIGEESVAAGEKSILTDNPTWAID [I22A] stands 1.76; under FIGEESVAAGEKSILTDNPTWRID [I22R], 2.09.
Same read-out and setting: in the case of FIGEESVAAGEKSILTDNPTWDID [I22D] it was 4.58; in that of FIGEESVAAGEKSILTDNPTWGID [I22G], 3.11.
On the same count and under the same terms, under FIGEESVAAGEKSILTDNPTWCID [I22C] stands 2.18; under FIGEESVAAGEKSILTDNPTWVID [I22V], 2.31.
With FIGEESVAAGEKSILTDNPTWIRD [I23R], the protein stability index was 3.9.
Same read-out and setting: under FIGEESVAAGEKSILTDNPTWIWD [I23W] stands 2.59.
With FIGEESVAAGEKSILTDNPTWIDD [I23D], the protein stability index turned out to be 3.04.
Take FIGEESVAAGEKSILTDNPTWILD [I23L]: the protein stability index came out at 3.6.
On the same count and under the same terms, under FIGEESVAAGEKSILTDNPTWIED [I23E] stands 3.85; under FIGEESVAAGEKSILTDNPTWIHD [I23H], 3.75.
On the same count and under the same terms, under FIGEESVAAGEKSILTDNPTWITD [I23T] stands 1.92; under FIGEESVAAGEKSILTDNPTWIYD [I23Y], 3.45; under FIGEESVAAGEKSILTDNPTWIVD [I23V], 2.02.
On the same count and under the same terms, under FIGEESVAAGEKSILTDNPTWIQD [I23Q] stands 3.39; under FIGEESVAAGEKSILTDNPTWIFD [I23F], 2.81.
On to FIGEESVAAGEKSILTDNPTWIKD [I23K], for which the protein stability index worked out at 3.64.
Still for that read-out and setting: in the case of FIGEESVAAGEKSILTDNPTWICD [I23C] it was 3.44; in that of FIGEESVAAGEKSILTDNPTWISD [I23S], 2.27; in that of FIGEESVAAGEKSILTDNPTWIPD [I23P], 3.04.
On the same count and under the same terms, in the case of FIGEESVAAGEKSILTDNPTWIAD [I23A] it was 1.84; in that of FIGEESVAAGEKSILTDNPTWIGD [I23G], 2.99; in that of FIGEESVAAGEKSILTDNPTWIMD [I23M], 2.52.
On the same count and under the same terms, in the case of FIGEESVAAGEKSILTDNPTWIND [I23N] it was 3.55.
Take FIGEESVAAGEKSILTDNPTLIID [W21L]: the protein stability index amounted to 4.06.
On the same count and under the same terms, in the case of FIGEESVAAGEKSILTDNPTKIID [W21K] it was 4.78; in that of FIGEESVAAGEKSILTDNPTQIID [W21Q], 4.65.
On the same count and under the same terms, in the case of FIGEESVAAGEKSILTDNPTVIID [W21V] it was 4.95; in that of FIGEESVAAGEKSILTDNPTHIID [W21H], 4.71.
Take FIGEESVAAGEKSILTDNPTEIID [W21E]: the protein stability index was determined as 5.07.
Take FIGEESVAAGEKSILTDNPTTIID [W21T]: the protein stability index amounted to 4.87.
The same measure, in the same setting: under FIGEESVAAGEKSILTDNPTFIID [W21F] stands 3.89; under FIGEESVAAGEKSILTDNPTRIID [W21R], 4.48.
Still for that read-out and setting: under FIGEESVAAGEKSILTDNPTDIID [W21D] stands 4.85; under FIGEESVAAGEKSILTDNPTPIID [W21P], 4.67; under FIGEESVAAGEKSILTDNPTIIID [W21I], 3.92.
On the same count and under the same terms, under FIGEESVAAGEKSILTDNPTGIID [W21G] stands 4.71.
Consider FIGEESVAAGEKSILTDNPTMIID [W21M], for which the protein stability index turned out to be 4.69.
Same read-out and setting: under FIGEESVAAGEKSILTDNPTNIID [W21N] stands 4.57.
Take FIGEESVAAGEKSILTDNPTSIID [W21S]: the protein stability index was 4.41.
The same measure, in the same setting: in the case of FIGEESVAAGEKSILTDNPTCIID [W21C] it was 4.23; in that of FIGEESVAAGEKSILTDNPTAIID [W21A], 4.65.
The same measure, in the same setting: under FIGEESVAAGEKSILTDNPTYIID [W21Y] stands 3.96; under FIGEESVAAGEKSILTDNPKWIID [T20K], 3.4; under FIGEESVAAGEKSILTDNPMWIID [T20M], 1.82.
Same read-out and setting: in the case of FIGEESVAAGEKSILTDNPYWIID [T20Y] it was 1.7; in that of FIGEESVAAGEKSILTDNPSWIID [T20S], 2.56; in that of FIGEESVAAGEKSILTDNPVWIID [T20V], 2.65.
As to FIGEESVAAGEKSILTDNPRWIID [T20R], the protein stability index stood at 2.73.
Still for that read-out and setting: under FIGEESVAAGEKSILTDNPQWIID [T20Q] stands 3.09; under FIGEESVAAGEKSILTDNPPWIID [T20P], 2.25; under FIGEESVAAGEKSILTDNPHWIID [T20H], 2.67.
Consider FIGEESVAAGEKSILTDNPLWIID [T20L], for which the protein stability index came to 2.05.
Still for that read-out and setting: under FIGEESVAAGEKSILTDNPWWIID [T20W] stands 2.03; under FIGEESVAAGEKSILTDNPNWIID [T20N], 3.1.
On the same count and under the same terms, in the case of FIGEESVAAGEKSILTDNPIWIID [T20I] it was 1.73.

In another data set the parent is B2. The description is as above. Conditions: c terminus: a fixed tail appended.
Regarding DALETQPQGDEEDIASRYPTLWTE [P1D], the protein stability index is 4.56.
The same measure, in the same setting: under FALETQPQGDEEDIASRYPTLWTE [P1F] stands 3.44.
Same read-out and setting: in the case of EALETQPQGDEEDIASRYPTLWTE [P1E] it was 4.63; in that of AALETQPQGDEEDIASRYPTLWTE [P1A], 4.26.
On the same count and under the same terms, under CALETQPQGDEEDIASRYPTLWTE [P1C] stands 3.24.
